{
  "source": "patent US20210315969A1",
  "about": "“GLYCOPROTEINS HAVING LIPID MOBILIZING PROPERTIES AND THERAPEUTIC USES THEREOF” (Aston University, priority 2008, published 2021)",
  "molecules": {"B1": {"name": "Zinc-α2-glycoprotein (protein, listed as Homo sapiens)", "chain": "QENQDGRYSLTYIYTGLSKHVEDVPAFQALGSLNDLQFFRYNSKDRKSQPMGLWRQVEGMEDWKEDSQLQKAREDMETLKDIVEYYNDSNGSHVLQGRFGCEIENNRSSGAFWKYYYDGKDYIEFNKEIPAWVPFDPAAQITKQKWEAEPVYVQRAKAYLEEECPATLRKYLKYSKNILDRQDPPSVVVTSHQAPGEKKKLKCLAYDFYPGKIDVHWTRAGQVQEPELRGDVLHNGNGTYQSWVVVAVPPQDTAPYSCHVQHSSLAQPLVVPWEAS", "notes": "recombinant human Zinc-α2-glycoprotein, lipid mobilizing factor, expressed in HEK293F cells"}},
  "key": {"[1]": {"tested_on": "adipocytes and gastrocnemius muscle", "assay": "Glucose uptake into adipocytes and gastrocnemius muscle of ob/ob mice treated with ZAG", "format": "in vivo", "settings": "presence of low (1 nM) insulin", "method": "Glucose (intake into Atlipocpyes Isolated adipocytes (5×10^4) were washed twice in 1 ml Krebs-Ringer bicarbonate buffer, pH 7.2 (KRBS) and further incubated for 10 min at room temperature in 0.5 ml KRBS containing 18.5MBq […]-^14CI deoxy-D-glucose and non-radioactive 2-deoxy-D-glucose to a final concentration of 0.1 mM. Uptake was terminated by the addition of 1 ml ice-cold glucose-free KRBS, and the cells were washed three times with 1 ml KRBS, lysed by addition of 0.5 ml 1 M NaOH and left for at least 1 h at room temperature before the radioactivity was determined by liquid scintillation counting.\nGlucose Uptake into Gostrocneinius Muscle—Gastrocnemius muscles were incubated in Krebs-Henseleit bicarbonate butler for 45 min at 37° C. and then incubated for a further 10 min in 5 ml Krebs-Henseleit butler containing 185M Bq 2-[1-^14C]deoxy-D-glucose and non-radioactive 2-deoxy-D-glucose to a final concentration of 0.1 mM. The muscles were then removed and washed in 0.9% NaCl for 5 min followed by dissolution in 0.5 ml 1M NaOH and the radioactivity was determined by liquid scintillation counting."}, "[2]": {"tested_on": "proteasome 'chymotrypsin-like' activity, caspase-3 and caspase-8", "assay": "Proteasome 'chymotrypsin-like' and caspase activity in gastrocnemius muscle", "format": "in vivo", "settings": "ob/ob mice treated 5 days", "method": "Gastrocnemius muscle was homogenised in 20 mM Tris, pH7.5, 2 mM ATP, 5 mM MgCl2 and 50 mM DTT at 4° C., sonicated and centrifuged at 18,000 g for 10 min at 4° C. to pellet insoluble material, and the resulting supernatant was used to measure ‘chymotrypsin-like’ enzyme activity in the presence or absence of the proteasome inhibitor lactacystin (10 μM). Only lactacystin suppressible activity was considered as true proteasome activity. The activity of caspase-3 was determined by the release of AMC from AcAsp.Gly.Val.Asp.AMC (SEQ ID NO: 3), and the activity of caspase-8 was determined by the release of 7-amino-4-trifluromethylcoumarin (AFC) from the specific substrate Z-Ile Glu Phe Thr Asp-AFC (SEQ ID NO: 4), using the supernatant from above (50 ug protein), and either the caspase-3 or −8 substrate (10 μM) for ih 37° C. in the presence or absence of the caspase-3 (AcAsp Glu Val Asp-CHO) (SEQ ID NO: 5) or caspase-8 (Ile Glu Phe Thr Asp-CHO) (SEQ ID NO: 6) inhibitors (100 μM). The increase in fluorescence due to […], while the increase in fluorescence due to AFC was measured with an excitation wavelength of 400 nm and an emission wavelength of 505 nm. The difference in values in the absence and presence of the caspase inhibitors was a measure of activity."}, "[3]": {"tested_on": "rat epididymal adipocytes", "assay": "Lipolytic activity in rat adipocytes", "format": "cell-based", "settings": "concentrations between 233 and 700 nM", "method": "Lipolytic Activity in Rat Adipocytes—White adipocytes were prepared from finely minced epididymal adipose tissue of male Wistar rats (400 g) using collagenase digestion, as described (Beck S A, et al. Production of lipolytic and proteolytic factors by a murine tumor-producing cachexia in the host. Cancer Res 47:5919-5923, 1987), Lipolytic activity was determined by incubating 10^5-2×10^5 adipocytes for 2 h in 1 ml Krebs-Ringer bicarbonate buffer, pH 7.2, and the extent of lipolysis was determined by measuring the glycerol released (Wieland O. Glycerol U V method. Methods of Enzymatic Analysis, edited by Bergmeyer H U, Academic Press, London, pp 1404-1409, 1974). Spontaneous glycerol release was measured by incubating adipocytes alone. Lipolytic activity was expressed as μmol glycerol released/10^5 adipocytes/2 h."}, "[4]": {"tested_on": "murine myotubes", "assay": "Protein degradation and synthesis in myotubes subjected to high glucose", "format": "cell-based", "method": "FIGS. 18A and 18B is a graphical diagram showing phenylalanine release (FIG. 18A) and protein synthesis (FIG. 18B) in C2Cl2 myotubes treated with and without ZAG for 4 h in the presence of various concentrations of glucose. Statistically significant c, P<0.001 from control; f, P<0.001 from glucose alone.\nStatistically significant b, P<0.01 and c, P<0.001 from control; e, P<0.05 and f, P<0.001 from glucose alone.\nStatistically significant b, P<0.01 and c, P<0.001 from control; e, P<0.05 and f, P<:0.001 from glucose alone; I, P<0.001 from glucose+SR.\nThis utilizes murine myotubes subjected. to high concentrations of glucose (10 or 25 mM)."}, "[5]": {"tested_on": "adipocytes", "assay": "Expression of phospho HSL / HSL in adipocytes incubated 3 h with ZAG or isoprenaline", "format": "cell-based, mice", "settings": "3 h; isoprenaline 10 μM or ZAG 0.46 μM"}},
  "data": [
    {"molecule": "B1", "values": [
      {"measurement": "glucose uptake into epididymal and visceral adipocytes", "setting": "[1]", "value": "also increased glucose uptake"},
      {"measurement": "caspases-3 and -8", "setting": "[2]", "value": "attenuated"},
      {"measurement": "glycerol release", "setting": "[3]", "value": "dose-related increase"},
      {"measurement": "high glucose induced increase in protein degradation and depression of protein synthesis", "setting": "[4]; ZAG 2.5 μg/ml, glucose 10 or 25 mM", "value": "completely attenuated"},
      {"measurement": "protein degradation induced by 10 and 25 mM glucose", "setting": "[4]; myotubes", "value": "attenuated"},
      {"measurement": "expression of phospho HSL in adipocytes", "setting": "[5]", "value": "increased expression of phospho HISL"}
    ]}
  ]
}
